The target in the assay is T1, MBP tagged CbbL(1–136) (Halothiobacillus neapolitan (ATCC 23641), UniProt O85040 1-136).
T1 construct: Residues 1-136 (N domain) of RuBisCO large subunit CbbL of Halothiobacillus neapolitan (ATCC 23641); The coat of the ELISA; also called CbbL(N)
T1 sequence (looked up): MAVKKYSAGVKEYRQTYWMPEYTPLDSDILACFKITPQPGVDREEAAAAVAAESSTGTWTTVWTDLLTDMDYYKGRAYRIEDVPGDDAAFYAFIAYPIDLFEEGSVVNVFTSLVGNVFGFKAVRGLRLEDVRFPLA
Kind of assay: ELISA; semi-quantitative; MaxiSorp plates coated with MBP-tagged CbbL(1–136) (30 nM in 0.1 M Na2CO3 pH 9.6, 4 °C, 12 h); CsoS1C-6xHis 5 nM to 5 μM in blocking buffer (1 mM CaCl2, 1% BSA in TBS), 1 h at room temperature; detected by 6xHis tag antibody and anti-mouse IgG-HRP; Hill equation fit; apparent Kd. Conditions: both partners purified. For orientation: ELISA stands for enzyme-linked immunosorbent assay.

B1: CsoS1C-6xHis (natural protein, Halothiobacillus neapolitan (ATCC 23641))
chain: MAAVTGIALGMIETRGLVPAIEAADAMTKAAEVRLVGRQFVGGGYVTVLVRGETGAVNAAVRAGADACERVGDGLVAAHIIARVHSEVENILPKAPEA
notes: Carboxysome shell protein CsoS1C of Halothiobacillus neapolitan (ATCC 23641); printed length 98 a.a; not measured in the assay
B1: the Kd was determined as 120 ± 4.6 nM.

The values above are taken from publication PMC6180065, “Deciphering molecular details in the assembly of alpha-type carboxysome” (Scientific Reports, 2018).
